Measured values: PMC8769549, “The intrinsically disordered SARS-CoV-2 nucleoprotein in dynamic complex with its viral partner nsp3a”

Target: N234 (nucleoprotein domains N2-N3-N4) (SARS-CoV-2 (NC_045512.2), UniProt P0DTC9 47-364)
Assay: NMR; 1D NMR; 100 uM RNA, 50 uM N234
Conditions: protein: recombinant; tags: N-terminal His6-TEV, cleaved; chain copies: 2; single strand

AAAAAA (ssRNA) [polyA hexameric RNA]: binds.
